Test results taken from article PMC9932110, “RanBP9 controls the oligomeric state of CTLH complex assemblies” (The Journal of Biological Chemistry, 2023).
“And” between values parts separate entries of the source, which are not always exact repeats. Identical values can stand only once.

T1: Wdr26 (mouse, UniProt Q8C6G8 1-641)
T1 chain: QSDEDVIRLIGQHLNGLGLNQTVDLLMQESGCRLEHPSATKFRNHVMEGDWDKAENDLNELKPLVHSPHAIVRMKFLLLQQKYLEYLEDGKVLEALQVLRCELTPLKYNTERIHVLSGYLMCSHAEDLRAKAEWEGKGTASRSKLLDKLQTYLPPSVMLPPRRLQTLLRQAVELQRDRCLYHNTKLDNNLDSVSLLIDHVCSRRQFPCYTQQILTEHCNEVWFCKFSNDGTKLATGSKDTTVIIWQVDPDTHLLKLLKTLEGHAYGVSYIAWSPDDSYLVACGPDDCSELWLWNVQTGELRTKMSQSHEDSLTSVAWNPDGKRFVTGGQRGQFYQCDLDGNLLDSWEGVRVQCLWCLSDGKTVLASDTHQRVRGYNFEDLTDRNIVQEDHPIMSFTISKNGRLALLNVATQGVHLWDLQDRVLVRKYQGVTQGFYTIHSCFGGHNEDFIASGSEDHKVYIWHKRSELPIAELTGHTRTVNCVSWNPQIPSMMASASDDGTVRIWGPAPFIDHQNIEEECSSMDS


What was measured:
[1] = molecular target: the molecule itself; assay: SEC-MALS; Superose 6 10/300 GL, SEC buffer; molar mass of single proteins and of complexes assembled from purified proteins
[2] = molecular target: T1, Wdr26; assay: as above; conditions: both partners purified
[3] = molecular target: T1, Wdr26; assay: SEC-MALS; Wdr26 alone, dilution series from four batches, Superose 6 10/300 GL; molar mass at the peak against peak concentration, one-site model; dimer to higher oligomers; saturation not reached; conditions: both partners purified

| stoichiometry N [2] | Kd [3] | stoichiometry N [3] | Binder | stoichiometry N [1] |
| --- | --- | --- | --- | --- |
| – | – | – | muskelin (natural protein, rat, UniProt Q99PV3 1-735, looked up, muskelin, rat, 735 residues) MAAGGAVAAAPECRLLPYALHKWSSFSSTYLPENILVDKPNDQSSRWSSESNYPPQYLILKLERPAIVQNITFGKYEKTHVCNLKKFKVFGGMNEENMTELLSSGLKNDYNKETFTLKHKIDEQMFPCRFIKIVPLLSWGPSFNFSIWYVELSGIDDPDIVQPCLNWYSKYREQEAIRLCLKHFRQHNYTEAFESLQKKTKIALEHPMLTDMHDKLVLKGDFDACEELIEKAVNDGLFNQYISQQEYKPRWSQIIPKSTKGDGEDNRPGMRGGHQMVIDVQTETVYLFGGWDGTQDLADFWAYSVKENQWTCISRDTEKENGPSARSCHKMCIDIQRRQIYTLGRYLDSSVRNSKSLKSDFYRYDIDTNTWMLLSEDTAADGGPKLVFDHQMCMDSEKHMIYTFGGRILTCNGSVDDSRASEPQFSGLFAFNCQCQTWKLLREDSCNAGPEDIQSRIGHCMLFHSKNRCLYVFGGQRSKTYLNDFFSYDVDSDHVDIISDGTKKDSGMVPMTGFTQRATIDPELNEIHVLSGLSKDKEKREENVRNSFWIYDIVRNSWSCVYKNDQAAKENLSKSLQEEEPCPRFAHQLVYDELHKVHYLFGGNPGKSCSPKMRLDDFWSLKLCRPSKDYLLRHCKYLIRKHRFEEKAQMDPLSALKYLQNDLYITVDHSDPEETKEFQLLASALFKSGSDFTALGFSDVDHTYAQRTQLFDTLVNFFPDSMTPPKGNLVDLITL | 4 |
| 2 | 10 µM | ≥ 8 and 12 | Wdr26 (natural protein, Supplement: residues 1-101 deleted. Paper gives 625 residues, matching E0CYH4 (CTLH 136-195) rather than the 641-aa Q8C6G8 canonical form (CTLH 136-211). Forms a concentration-dependent oligomer …) QSDEDVIRLIGQHLNGLGLNQTVDLLMQESGCRLEHPSATKFRNHVMEGDWDKAENDLNELKPLVHSPHAIVRMKFLLLQQKYLEYLEDGKVLEALQVLRCELTPLKYNTERIHVLSGYLMCSHAEDLRAKAEWEGKGTASRSKLLDKLQTYLPPSVMLPPRRLQTLLRQAVELQRDRCLYHNTKLDNNLDSVSLLIDHVCSRRQFPCYTQQILTEHCNEVWFCKFSNDGTKLATGSKDTTVIIWQVDPDTHLLKLLKTLEGHAYGVSYIAWSPDDSYLVACGPDDCSELWLWNVQTGELRTKMSQSHEDSLTSVAWNPDGKRFVTGGQRGQFYQCDLDGNLLDSWEGVRVQCLWCLSDGKTVLASDTHQRVRGYNFEDLTDRNIVQEDHPIMSFTISKNGRLALLNVATQGVHLWDLQDRVLVRKYQGVTQGFYTIHSCFGGHNEDFIASGSEDHKVYIWHKRSELPIAELTGHTRTVNCVSWNPQIPSMMASASDDGTVRIWGPAPFIDHQNIEEECSSMDS | – |
